Data on one molecule can be found in paper doi:10.1101/2023.09.01.555900 (bioRxiv, 2023).

This assay concerns the target Rho factor (E. coli transcription termination factor Rho) (E. coli, UniProt P0AG30 1-419). Description: SEC.

Rho factor (E. coli transcription termination factor Rho), sequence (P0AG30 whole entry): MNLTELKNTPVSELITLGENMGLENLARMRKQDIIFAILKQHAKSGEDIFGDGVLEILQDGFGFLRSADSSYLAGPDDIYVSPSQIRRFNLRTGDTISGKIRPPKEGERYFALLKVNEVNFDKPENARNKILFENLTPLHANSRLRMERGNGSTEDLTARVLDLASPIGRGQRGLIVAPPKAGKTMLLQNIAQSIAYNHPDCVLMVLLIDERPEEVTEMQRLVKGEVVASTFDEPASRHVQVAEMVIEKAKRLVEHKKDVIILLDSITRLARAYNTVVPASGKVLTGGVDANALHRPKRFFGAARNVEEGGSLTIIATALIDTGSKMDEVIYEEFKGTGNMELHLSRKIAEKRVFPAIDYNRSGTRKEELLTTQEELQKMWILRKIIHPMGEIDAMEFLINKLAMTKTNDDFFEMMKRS

B1: Rof (Rho-off, also called YaeO) (natural protein, E. coli)
chain: MNDTYQPINCDDYDNLELACQHHLMLTLELKDGEKLQAKASDLVSRKNVEYLVVEAAGETRELRLDKITSFSHPEIGTVVVSES
With B1, the binding result is “binds”.
